The data set relates to K562 CRISPRi cells. Briefly: Constant region variant library pooled growth screen, K562. It is filed as cell-based, human. Conditions: sgRNA constant region variants. The gist of the method: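 Cells were selected with puromycin for 2 days and then kept in RPMI-1640 spinner cultures, with duplicates handled separately. Targeting sequences comprised 3 sgRNAs per essential gene for 10 genes plus six non-targeting controls. Activities were normalized against pairing with the unmodified scaffold.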

Where [1] appears, read: relative to the original, un-modified constant region cr995, CRISPRi.
[2] abbreviates: activity relative to the unmodified constant region cr995.
Where [3] appears, read: activity relative to the original, un-modified constant region cr995.

Where a chain is given by its changes, count along the chain named.

B1: cr573 (nucleic acid)
guide: GTTTAAGAGCTAAGCTGGAAACAGCATAGCTAGTTTAAATAAGGCTAGTCCGATATCAACTTGAAAAAGTCGCACCGAGTCGGTGCT
modifications: listed as DNA, chemistry not fully specified
B1 returned a Mean relative activity under setting [1] of 0.3297.

B2: cr709 (nucleic acid)
guide: B1 guide with T31A, A53T, C57T, C71T
modifications: listed as DNA, chemistry not fully specified
In turn, B2 displayed a Mean relative activity under setting [2] of 0.3211.

B3: cr069 (nucleic acid)
guide: B1 guide with T2C, G7A, T31A, A53T, C71G
modifications: listed as DNA, chemistry not fully specified
Regarding B3, under setting [2], the Mean relative activity was 0.3244.

B4: cr146 (nucleic acid)
guide: B1 guide with T31A, A53T, C71G, C76G, G77C, C81G, G82C
modifications: listed as DNA, chemistry not fully specified
Take B4: the Mean relative activity under setting [2] is on record as 0.3141.

B5: cr331 (nucleic acid)
guide: B1 guide with T31A, T34C, A53T, C71G, C75T, G83A
modifications: listed as DNA, chemistry not fully specified
Take B5: under setting [2], the Mean relative activity worked out at 0.2828.

B6: cr466 (nucleic acid)
guide: B1 guide with T31A, T40A, A53T, C71G
modifications: listed as DNA, chemistry not fully specified
As for B6, the Mean relative activity under setting [2] is recorded as 0.3153.

B7: cr892 (nucleic acid)
guide: B1 guide with T31A, A53T, T61G, A68C, C71G, A74G, C75A, G83T, T84C
modifications: listed as DNA, chemistry not fully specified
B7 gave a Mean relative activity under setting [3] of 1.041.

B8: cr055 (nucleic acid)
guide: B1 guide with T2G, A8C, T31A, A53T, C71G
modifications: listed as DNA, chemistry not fully specified
Regarding B8, the Mean relative activity under setting [2] is reported as 0.3045.

B9: cr027 (nucleic acid)
guide: B1 guide with T3C, G7A, T31A, A53T, C71G
modifications: listed as DNA, chemistry not fully specified
B9 yielded a Mean relative activity under setting [2] of 0.2878.

B10: cr210 (nucleic acid)
guide: B1 guide with T31A, A53T, A58T, A65C, C71G
modifications: listed as DNA, chemistry not fully specified
B10 came in with a Mean relative activity under setting [2] of 0.313.

B11: cr154 (nucleic acid)
guide: B1 guide with A28C, T31A, G52A, A53T, C71G
modifications: listed as DNA, chemistry not fully specified
Under setting [2], B11 returned a Mean relative activity of 0.2827.

B12: cr125 (nucleic acid)
guide: B1 guide with T31A, G33T, A53T, A65T, C71G
modifications: listed as DNA, chemistry not fully specified
For B12, under setting [2], the Mean relative activity is on record as 0.2852.

B13: cr897 (nucleic acid)
guide: B1 guide with T31A, A38T, A53T, C71G
modifications: listed as DNA, chemistry not fully specified
Under setting [2], B13 displayed a Mean relative activity of 0.3233.

B14: cr002 (nucleic acid)
guide: B1 guide with G1C, T31A, A53T, C71G
modifications: listed as DNA, chemistry not fully specified
In the case of B14, the Mean relative activity under setting [2] worked out at 0.3195.

B15: cr173 (nucleic acid)
guide: B1 guide with T31A, G43A, C51T, A53T, C71G, C73T, C75G, G83C, G85A
modifications: listed as DNA, chemistry not fully specified
B15: the Mean relative activity under setting [2] is 0.3244.

B16: cr344 (nucleic acid)
guide: B1 guide with T31A, G52A, A53T, A66T, C71G
modifications: listed as DNA, chemistry not fully specified
B16 displayed a Mean relative activity under setting [2] of 0.2836.

B17: cr850 (nucleic acid)
guide: B1 guide with T31A, A53T, C71G, A78G, T80G
modifications: listed as DNA, chemistry not fully specified
B17 registered a Mean relative activity under setting [2] of 0.3225.

B18: cr006 (nucleic acid)
guide: B1 guide with T2G, T31A, A53T, C71G
modifications: listed as DNA, chemistry not fully specified
The molecule B18 yielded a Mean relative activity under setting [1] of 0.3275.

B19: cr004 (nucleic acid)
guide: B1 guide with T2A, T31A, A53T, C71G
modifications: listed as DNA, chemistry not fully specified
As for B19, the Mean relative activity under setting [2] is on record as 0.3103.

B20: cr322 (nucleic acid)
guide: B1 guide with T31A, T49C, A53T, C57G, C71G
modifications: listed as DNA, chemistry not fully specified
B20: the Mean relative activity under setting [2] was determined as 0.3033.

B21: cr242 (nucleic acid)
guide: B1 guide with T31A, C45G, G48C, A53T, C60G, G69C, C71G, G77T, C81A
modifications: listed as DNA, chemistry not fully specified
B21: the Mean relative activity under setting [1] was determined as 0.3244.

B22: cr209 (nucleic acid)
guide: B1 guide with T31A, A41C, A53T, C71G
modifications: listed as DNA, chemistry not fully specified
As for B22, under setting [2], the Mean relative activity is 0.2959.

B23: cr237 (nucleic acid)
guide: B1 guide with T31A, C45A, G48T, A53T, T61G, A68C, C71G, G77C, C81G
modifications: listed as DNA, chemistry not fully specified
As for B23, under setting [2], the Mean relative activity is 0.2843.

B24: cr685 (nucleic acid)
guide: B1 guide with T31A, A53T, A59G, C71G
modifications: listed as DNA, chemistry not fully specified
Under setting [3], B24 gave a Mean relative activity of 1.041.

B25: cr586 (nucleic acid)
guide: B1 guide with T31A, T34C, A53T, C71G, A74C, T84G
modifications: listed as DNA, chemistry not fully specified
Molecule B25 showed a Mean relative activity under setting [2] of 0.2939.

B26: cr591 (nucleic acid)
guide: B1 guide with T31A, A53T, A55G, A58T, C71G
modifications: listed as DNA, chemistry not fully specified
Turning to B26, the Mean relative activity under setting [2] is on record as 0.2933.

B27: cr982 (nucleic acid)
guide: B1 guide with T31A, T34C, A53T, C71G, C75A, G83T
modifications: listed as DNA, chemistry not fully specified
In turn, B27 registered a Mean relative activity under setting [2] of 0.2842.

B28: cr108 (nucleic acid)
guide: B1 guide with T31A, G43A, C51T, A53T, A65G, C71G
modifications: listed as DNA, chemistry not fully specified
In turn, B28 displayed a Mean relative activity under setting [2] of 0.3221.

B29: cr468 (nucleic acid)
guide: B1 guide with T31A, T34A, A53T, C71G
modifications: listed as DNA, chemistry not fully specified
B29 gave a Mean relative activity under setting [2] of 0.32.

These data come from patent publication US20220259593A1, “CONTROL OF MAMMALIAN GENE DOSAGE USING CRISPR” (The Regents of the University of California, priority 2019, published 2022).
